{"source": "patent US20250290928A1", "about": "“METHOD, KIT AND DEVICE FOR DETECTING EXTRACELLULAR VESICLES” (priority 2022, published 2025)", "key": {"[1]": {"target": "T1, MMP14 in the MDA-MB-231-derived extracellular vesicles (Homo sapiens, UniProt P50281)", "T1 construct": "in terms of intact MMP14 with a molecular weight of 70 kDa", "assay": "Digital detection of MDA-MB-231-derived extracellular vesicles through MMP14 activity in wells (microcompartments)", "assay_type": "biochemical", "conditions": "for Expected value λ / Number of positives / Positive ratio: Example 42, EV 2.5 μg/mL, reporter 5 μM, 30° C., TRITC filter; for Expected value λ (×1) / Extracellular vesicle concentration: single reporter; for Expected value λ (×1): at EV concentration x1; for Extracellular vesicle concentration: at x1, from λ (×1) and 50 fL microcompartment", "procedure": "The concentration of the solution is 6.7 μg/mL.\n100 μL of the MMP14 detection solution was added to 100 μL of the sample to provide a reaction solution for wells. […] 100 μL of 200 μL of the prepared reaction solution for wells was used in the measurement of MMP14 activity with a 96-well plate.\nNext, the wells were filled with the reaction solution by leaving the well array 200 to stand under reduced pressure to degas the space 205. After that, the space 205 was fed with hydrophobic solvents to be sealed. Fluorinated oils AsahiKlin AE-3000 (manufactured by AGC Inc.) and Fomblin Y-25 (manufactured by Solvay S.A.) were used as the hydrophobic solvents. A fluorinated oil Simoa (trademark) SR-X Sealing Oil: 102767 (manufactured by Quanterix Corporation) was further used as another hydrophobic solvent.\nWell diameter: 4.25 μm Well depth: 3.25 μm Well capacity: 50 fL Number of wells in array: 239,000 Array range: 3 mm×4 mm\nThe concentration of the solution is 20 μg/mL. […] The concentration of the solution was set to x1, and 10-fold serial dilution was performed to prepare standard samples with five concentrations.\nNext, the wells were filled with the reaction solution by leaving the well array 200 to stand under reduced pressure to degas the space 205. After that, the space 205 was fed with hydrophobic solvents to be sealed.\nThe concentration of the solution is 20 μg/mL. […] The concentration of the solution was set to x1, and 3-fold serial dilution was performed to prepare standard samples with three concentrations.\nThe concentration of the solution is 20 μg/mL. […] The concentration of the solution was set to x1, and 2-fold serial dilution was performed to prepare standard samples with four concentrations.\nThe concentration of the solution is 5 μg/mL.\n50 μL of the MMP14 detection solution was added to 50 μL of the sample to provide a reaction solution for wells.\n50 μL of each of the MMP14 detection solutions was added to 50 μL of the sample to provide a reaction solution for wells.\nThe concentration of the solution is 6.7 µg/mL."}, "[2]": {"target": "T1, MMP14 in the MDA-MB-231-derived extracellular vesicles", "assay": "Evaluation of MMP14 activity of MDA-MB-231-derived extracellular vesicles with 96-well plate", "assay_type": "biochemical", "procedure": "A relative fluorescence unit difference ΔRFU was calculated by subtracting the measured value of the sample for BG measurement from the measured value of each of the samples.\nThe concentration of the solution is 41.7 μg/mL. The concentration of the solution was set to x1, and 2-fold serial dilution was performed to prepare standard samples with six concentrations.\n50 μL of the MMP14 detection solution was added to 50 μL of each of the samples, a reaction was performed at 37° C., and MMP14 activity was evaluated.\nThe concentration of the solution is 10 μg/mL.\n50 μL of each of the MMP14 detection solutions was added to 50 μL of each of the samples, a reaction was performed at 37° C., and MMP14 activity was evaluated. […]\nThe concentration of the solution is 20 μg/mL. The concentration of the solution was set to x1, and 3-fold serial dilution was performed to prepare standard samples with three concentrations.\nThe concentration of the solution is 8 μg/mL.\n50 μL of each of the MMP14 detection solutions was added to 50 μL of the sample, a reaction was performed at 37° C., and MMP14 activity was evaluated. […]\n50 μL of the MMP14 detection solution was added to 50 μL of each of the samples, a reaction was performed at 30° C., and MMP14 activity was evaluated.\nThe MMP14 activity of the extracellular vesicles was evaluated with a 96-well plate (137101). A fluorescence intensity was measured with a fluorescence plate reader (Synergy) at 30° C. every 5 minutes for 2 hours. For measurement wavelengths, an excitation wavelength of 545±20 nm and a fluorescence wavelength of 588±20 nm were used. A relative fluorescence unit difference (ΔRFU) was calculated by subtracting the measured value of the sample for BG measurement from the measured value of each of the samples.\n50 μL of each of the MMP14 detection solutions was added to 50 μL of each of the samples, a reaction was performed at 30° C., and MMP14 activity was evaluated."}}, "note": "No end group written: not given here. TQ3 = quencher", "data": [{"substance": "TAMRA-GGPLGLAGGK(TQ3) ({TAMRA}-GGPLGLAGGK(TQ3)) [Custom #2T]", "values": [{"measurement": "Expected value λ", "setting": "[1]; 4 hr", "value": 0.1255}, {"measurement": "Number of positives", "setting": "[1]; 4 hr", "value": "3,313"}, {"measurement": "Positive ratio", "setting": "[1]; 4 hr", "value": 0.118}, {"measurement": "Expected value λ", "setting": "[1]; 24 hr", "value": 0.1339}, {"measurement": "Number of positives", "setting": "[1]; 24 hr", "value": "3,518"}, {"measurement": "Positive ratio", "setting": "[1]; 24 hr", "value": 0.1253}, {"measurement": "Expected value λ (×1)", "setting": "[1]; reaction 4 hr", "value": 0.5022}, {"measurement": "Extracellular vesicle concentration", "setting": "[1]; reaction 4 hr", "value": "1.0044e+10", "unit": "mL⁻¹"}, {"measurement": "Expected value λ (×1)", "setting": "[1]; reaction 24 hr", "value": 0.5354}, {"measurement": "Extracellular vesicle concentration", "setting": "[1]; reaction 24 hr", "value": "1.0709e+10", "unit": "mL⁻¹"}, {"measurement": "Fluorescence change after 2 hours of reaction at 30° C.", "setting": "[2]; Example 41, EV 5 μg/mL, reporter 5 μM, buffer (4), excitation 545±20 nm, fluorescence 588±20 nm", "value": "6,455 ΔRFU"}, {"measurement": "Fluorescence change after 2 hours of reaction at 30° C.", "setting": "[2]; MP, 1.25 μM #2T with 1.25 μM #1, EV 3.3 μg/mL", "value": "1,015 ΔRFU"}, {"measurement": "Fluorescence change after 2 hours of reaction at 30° C.", "setting": "[2]; MP, 1.25 μM #2T with 1.25 μM #2, EV 3.3 μg/mL", "value": "1,734 ΔRFU"}, {"measurement": "Fluorescence change after 2 hours of reaction at 30° C.", "setting": "[2]; MP, 2.5 μM #2T with 2.5 μM #1, EV 3.3 μg/mL", "value": "1,118 ΔRFU"}, {"measurement": "Fluorescence change after 2 hours of reaction at 30° C.", "setting": "[2]; MP, 2.5 μM #2T with 2.5 μM #2, EV 3.3 μg/mL", "value": "2,196 ΔRFU"}]}]}
